In assay [1] the target is Stat84, activated (from IFN-γ-treated C84 or Cmx cells) (human) (UniProt P42224). Nature of the assay: cell-based or functional assay.
Assay [2] has as its target Stat91L, activated (from IFN-γ-treated C91L or Cmx cells) (human) (UniProt P42224). Briefly: cell-based or functional assay.
Assay [3] deals with tyrosine phosphorylated Stat91 (human) (UniProt P42224). Briefly: native gel electrophoresis, Ferguson plots.
The target is the same in assay [4]. Briefly: glycerol gradient sedimentation.

Stat84, activated (from IFN-γ-treated C84 or Cmx cells) (human), sequence (P42224 2-712 limits assumed): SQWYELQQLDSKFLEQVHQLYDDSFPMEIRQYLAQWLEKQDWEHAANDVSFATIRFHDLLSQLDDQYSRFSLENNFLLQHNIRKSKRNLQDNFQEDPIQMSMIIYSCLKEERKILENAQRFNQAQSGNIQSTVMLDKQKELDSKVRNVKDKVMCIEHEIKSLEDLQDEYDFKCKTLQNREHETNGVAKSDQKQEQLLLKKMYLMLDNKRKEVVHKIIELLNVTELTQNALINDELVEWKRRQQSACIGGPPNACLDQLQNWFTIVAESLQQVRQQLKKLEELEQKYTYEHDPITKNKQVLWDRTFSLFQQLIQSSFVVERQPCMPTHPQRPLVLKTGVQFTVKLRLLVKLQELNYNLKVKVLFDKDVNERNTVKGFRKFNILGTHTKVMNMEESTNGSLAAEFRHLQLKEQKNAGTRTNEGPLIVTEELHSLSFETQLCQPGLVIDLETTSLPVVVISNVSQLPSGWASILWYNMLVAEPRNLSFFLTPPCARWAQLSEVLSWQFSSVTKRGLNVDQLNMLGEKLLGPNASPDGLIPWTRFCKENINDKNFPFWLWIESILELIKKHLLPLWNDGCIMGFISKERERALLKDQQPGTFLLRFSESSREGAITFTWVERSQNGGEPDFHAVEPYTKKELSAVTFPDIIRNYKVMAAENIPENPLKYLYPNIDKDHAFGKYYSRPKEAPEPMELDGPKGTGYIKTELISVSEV
Stat91L, activated (from IFN-γ-treated C91L or Cmx cells) (human), sequence (P42224 2-750, stated change not applied): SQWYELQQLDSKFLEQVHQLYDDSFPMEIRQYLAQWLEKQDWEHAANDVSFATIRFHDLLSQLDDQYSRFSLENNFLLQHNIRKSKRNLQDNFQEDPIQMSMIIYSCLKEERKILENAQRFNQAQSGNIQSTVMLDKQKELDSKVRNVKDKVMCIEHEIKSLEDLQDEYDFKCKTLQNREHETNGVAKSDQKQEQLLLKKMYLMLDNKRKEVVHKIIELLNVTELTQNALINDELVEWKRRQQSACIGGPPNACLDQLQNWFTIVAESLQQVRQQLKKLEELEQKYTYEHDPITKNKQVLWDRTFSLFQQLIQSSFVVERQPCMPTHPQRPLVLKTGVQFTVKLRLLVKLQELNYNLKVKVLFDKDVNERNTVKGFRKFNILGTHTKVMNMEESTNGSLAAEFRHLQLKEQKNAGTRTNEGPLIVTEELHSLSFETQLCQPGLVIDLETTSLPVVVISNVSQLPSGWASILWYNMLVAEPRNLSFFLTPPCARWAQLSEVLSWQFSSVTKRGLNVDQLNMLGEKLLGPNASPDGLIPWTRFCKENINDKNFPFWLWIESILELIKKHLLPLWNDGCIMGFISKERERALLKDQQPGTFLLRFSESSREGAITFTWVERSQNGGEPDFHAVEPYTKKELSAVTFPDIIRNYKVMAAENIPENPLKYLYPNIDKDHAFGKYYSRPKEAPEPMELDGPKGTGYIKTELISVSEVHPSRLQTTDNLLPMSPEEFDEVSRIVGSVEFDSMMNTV

On to “GST-91SH2 (glutathione-S-transferase fused to the Stat91 SH2 domain, amino acids 573 to 672) (from UniProt P42224 573-672)”, for which the fusion protein concentration that promoted heterodimer formation (gel mobility shift) in assay [1] and in assay [2] was 0.5 to 5 µM throughout.

For “tyrosine phosphorylated Stat91 (from UniProt P42224 2-750)”, the native molecular weight in assay [3] and in assay [4] was 180 kD in each case.

Source of the values: patent US20050079543A1.
